From patent publication US20260132218A1 (A AND G PHARMACEUTICAL, published 2026)
Residue numbers refer to the chain shown, from its start. Blank lines part the entries; values can stand above or below the binder they belong to.

Tests used:
[1] = target: T1, human recombinant His-tagged HER2 extracellular domain (human, UniProt P04626 23-652); test: competition EIA on coated HER2, competitor trastuzumab-biotin; given as ED50
T1 construct: extracellular domain; also called HER2-ECD; HER-ECD
Experimental: (§1) Method: 96 well high binding EIA plates were coated with 10 ng of HER2 protein overnight at 4 C. […] After washing, colorimetric substrate 3,3′,5,5′-tetramethylbenzidine (TMB) was added and absorbance at 620 nm was determined after 10 minutes.

HER2 on SKBR3 cells = HER2 on SKBR3 cells (human, UniProt P04626 23-1255); test: cell-based or functional assay
[2] = target: T1, human recombinant His-tagged HER2 …; test: blocking ELISA (competition EIA): HER2 protein coated on the plate, pre-incubated with the antibody, then competitor anti-HER2 TRAST-biotin, streptavidin-HRP; signal as % of h.IgG
Experimental: as §1

IC50 [1]: 0.06 µg/mL | Migration assay, at 50 ug/ml (inhibition of migration of SKBR3 cells) (HER2 on SKBR3 cells): 32%
B4: 11D7 (antibody, V domains shown)
VH: EVQLVESGGGLVQPGRSLRLSCAASGFTFDDYAMHWVRQAPGKGLEWVSGIAWNGGILGYADSVKGRFTISRDNAKNSLYLQMNSLRAEDTALYYCAKDTGSYSHWYFDLWGRGTLVTVSS
VL: EIVMTQSPATLSVSPGERATLSCRASQSVRSNLAWYQQKPGQAPRLLIYGASTRATGIPARFSGSGSGTEFTLTISSLQSEDFAVYCCQQYNNWPTFGQGTKVEIK
notes: Hybridoma antibody from TC-mAb mice; also called AGRD017-11D7; fully human 11D7 antibody

IC50 [1]: 0.1 µg/mL | Migration assay, at 50 ug/ml (inhibition of migration of SKBR3 cells) (HER2 on SKBR3 cells): 32%
B5: 8C1 (antibody, IgG2a, V domains shown)
VH: B4 VH with A23T, A52S, I57T
VL: B4 VL with Q79H, C87Y
notes: also called AGRD017-8C1; fully human 8C1 antibody

IC50 [1]: 0.04 µg/mL | Internalization: Fluorescent Units (HER2 on SKBR3 cells): 9000 Fluorescent Units | Migration assay, at 50 ug/ml (inhibition of migration of SKBR3 cells) (HER2 on SKBR3 cells): 45%
B6: 12E3 (antibody, IgG1, V domains shown)
VH: B4 VH with E6G, A52S, I57T, D62G
VL: B4 VL with F62C, C87Y
notes: also called AGRD017-12E3; fully human 12E3 antibody

Further lines, the binder ahead of its results:

B1: 2A2 (antibody, IgG2a, V domains shown)
VH: B4 VH with A52S, I57T
VL: B4 VL with Q79H, C87Y
notes: also called AGRD017-2A2; fully human 2A2 antibody
IC50 [1]: 0.09 µg/mL | Migration assay, at 50 ug/ml (inhibition of migration of SKBR3 cells) (HER2 on SKBR3 cells): 38%

B2: 3G7 (antibody, IgG1, V domains shown)
VH: B4 VH with I51V, A52S, I57T, L58M, D62G
VL: B4 VL with A60G, T72I, C87Y
notes: also called AGRD017-3G7; fully human 3G7 antibody
IC50 [1]: 0.06 µg/mL | Migration assay, at 50 ug/ml (inhibition of migration of SKBR3 cells) (HER2 on SKBR3 cells): 24%

B3: 2D7 (antibody, IgG1, V domains shown)
VH: B4 VH with A52S, G55S, I57T, L58M, D62G
VL: not shown
notes: also called AGRD017-2D7; fully human 2D7 antibody
Killing assay at 0.3 ug/ml Ab (2 nM), DM1 (6 nM), 72 hr (HER2 on SKBR3 cells): 50% | Migration assay, at 50 ug/ml (inhibition of migration of SKBR3 cells) (HER2 on SKBR3 cells): 59% | IC50 (read off the curve) [2]: ~0.1 µg/mL
